Results taken from patent publication US20220017623A1, “TREATMENT OF CANCER USING A CEA CD3 BISPECIFIC ANTIBODY AND A WNT SIGNALING INHIBITOR” (Hoffmann-La Roche Inc., priority 2019, published 2022).
Like-named read-outs stand apart in the source and are kept apart here.

Experiments:
[1] = test system: patient derived colorectal cancer organoids (PDOs); assay: allogeneic CD8 T cell co-culture assay with patient derived colorectal cancer organoids, GFP confluence growth assessment; type: cell-based, human; conditions: 20 nM
Procedure: In order to assess the sensitivity of patient-derived colorectal cancer organoids (PDOs) to cibisatamab immunotherapy, eight patient derived colorectal cancer organoid lines with various cell surface CEA expression levels were generated and treated with cibisatamab (20 nM) or an untargeted control antibody (20 nM) during 10 days of co-culture with allogeneic CD8 T cells. CD8 T cells were isolated from allogeneic healthy donor peripheral blood mononuclear cells (PBMCs) by magnetic bead sorting and expanded in vitro with IL2 and CD3/CD28 beads for 7-14 days. GFP-tagged CRC PDO cells were then seeded in 96 well plates, T cells were added the following day and the co-cultures were imaged every 2-3 days on an automated 96 well plate fluorescence microscope. […] Co-culture with CD8 T cells without any antibody was included as a further control to enable the identification of alloreactive donor T cells.
Eight PDO lines were tested: three CEAhi PDOs (i.e. containing predominantly CEAhi cells; CRC-01, CRC-05, CRC-07), four PDOs with mixed CEA expression (i.e. containing large subpopulations of both CEAhi and CEAlo cells; CRC-02, CRC-03, CRC-04, CRC-08), and one CEAlo PDO (i.e. containing predominantly CEAlo cells; CRC-06).
PDOs were harvested with TrypLE Express and neutralised with DMEM/F12 Ham medium (Sigma Aldrich) with 10% FBS. Cells were filtered through a 70 μm filter, counted and resuspended in phenol-red free RPMI medium (Thermo Fisher) supplemented with 10% FBS (Biosera), 1× Glutamax and 100 units penicillin-streptomycin. On day 0, 5000 tumor cells per well of a 96 well-plate (Corning Special Optics Microplate) were plated. CD8 T cells were added on day 1 at the indicated effector to target (E:T) ratios with 20 nM of cibisatamab or 20 nM of the untargeted negative control antibody DP47-TCB (both provided by Roche). Tumor cells without CD8 T cells and without antibody were also included as controls. All conditions were plated in triplicates and at least 3 different healthy donors were tested on each of the 8 PDOs.
The GFP confluence was quantified every 48h-72h over a 10-day period using the GFP confluence application on the Celigo Imaging Cytometer (Nexcelom Bioscience). GFP confluence analysis was able to track the growth of GFP positive PDO cells over multiple timepoints without erroneously counting the T cells in the co-culture. […] The main advantage of confluence analysis over measuring spheroid diameters is the ability to track even the growth of PDOs showing highly variable shapes. Growth curves were generated with CD8 T cells from three different healthy blood donors. […]

[2] = test system: CEA expressing metastatic CRCs; conditions: cited from earlier work

B1: cibisatamab (antibody, chains of the INN, looked up, V domains shown)
VH: QVQLVQSGAEVKKPGASVKVSCKASGYTFTEFGMNWVRQAPGQGLEWMGWINTKTGEATYVEEFKGRVTFTTDTSTSTAYMELRSLRSDDTAVYYCARWDFAYYVEAMDYWGQGTTVTVSS
VL: DIQMTQSPSSLSASVGDRVTITCKASAAVGTYVAWYQQKPGKAPKLLIYSASYRKRGVPSRFSGSGSGTDFTLTISSLQPEDFATYYCHQYYTYPLFTFGQGTKLEIK
VH2: QVQLVQSGAEVKKPGASVKVSCKASGYTFTEFGMNWVRQAPGQGLEWMGWINTKTGEATYVEEFKGRVTFTTDTSTSTAYMELRSLRSDDTAVYYCARWDFAYYVEAMDYWGQGTTVTVSS
VL2: QAVVTQEPSLTVSPGGTVTLTCGSSTGAVTTSNYANWVQEKPGQAFRGLIGGTNKRAPGTPARFSGSLLGGKAALTLSGAQPEDEAEYYCALWYSNLWVFGGGTKLTVL
[1]; CEAhi PDOs (CRC-01, CRC-05, CRC-07), CD8 T cells E:T 2:1, 7-10 days, versus DP47-TCB control
  growth inhibition: 89-100%
[1]; four PDOs with mixed CEA expression (CRC-02, CRC-03, CRC-04, CRC-08), E:T 2:1
  reduction of the cancer cell growth rate compared to controls: only a moderate reduction of the cancer cell growth rate
[1]; predominantly CEAlo PDO CRC-06, E:T 2:1
  sensitivity to treatment with CD8 T cells and antibody: showed resistance
[1]; three CEAhi PDOs, E:T 2:1
  sensitivity to treatment with CD8 T cells and antibody: highly sensitive
[2]; in combination with PD-L1-inhibiting antibodies, 5/10 patients
  patients with radiological shrinkage (antitumor activity): 50%
[2]; monotherapy, metastatic CRC after at least two prior chemotherapy regimens, 4/36 patients
  patients with radiological shrinkage (antitumor activity): 11%
